From PMC11432007

Biological target: GABAA receptor β2 subunit extracellular domain fragment Gln25–Gly243 (human (abstract, Figure 1); 'bovine gene' in the methods) (UniProt P47870)
Assay: negative staining electron microscopy; single refolded subunit fragment, dialysed into 10 mM glycine pH 10.3; 2% uranyl acetate on carbon-coated copper grid, 120 kV TEM; 2D classification in Relion from manually picked particles of 20 micrographs

## GABAA receptor β2 subunit extracellular domain fragment Gln25–Gly243 (from UniProt P47870 25-243) (domain or fragment)
  stoichiometry N: 5
